The target in test [1] is T1, Reticulocalbin 3 (human, UniProt Q96D15 21-328).
T1 construct: HuProt array protein, full-length recombinant from yeast; also called RCN3
T1 sequence: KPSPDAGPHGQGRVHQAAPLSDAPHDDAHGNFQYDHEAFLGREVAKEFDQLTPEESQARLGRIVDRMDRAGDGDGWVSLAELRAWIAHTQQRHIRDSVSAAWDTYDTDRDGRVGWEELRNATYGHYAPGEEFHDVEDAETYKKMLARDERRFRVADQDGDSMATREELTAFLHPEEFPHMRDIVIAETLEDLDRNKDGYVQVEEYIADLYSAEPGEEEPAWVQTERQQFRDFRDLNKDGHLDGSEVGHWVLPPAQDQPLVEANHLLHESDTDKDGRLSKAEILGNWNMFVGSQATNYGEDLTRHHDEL

Test [2] addresses T2, glycogen phosphorylase L, transcript variant 1 (human, UniProt P06737 2-847).
T2 construct: HuProt array protein, full-length recombinant from yeast; also called PYGL
T2 sequence: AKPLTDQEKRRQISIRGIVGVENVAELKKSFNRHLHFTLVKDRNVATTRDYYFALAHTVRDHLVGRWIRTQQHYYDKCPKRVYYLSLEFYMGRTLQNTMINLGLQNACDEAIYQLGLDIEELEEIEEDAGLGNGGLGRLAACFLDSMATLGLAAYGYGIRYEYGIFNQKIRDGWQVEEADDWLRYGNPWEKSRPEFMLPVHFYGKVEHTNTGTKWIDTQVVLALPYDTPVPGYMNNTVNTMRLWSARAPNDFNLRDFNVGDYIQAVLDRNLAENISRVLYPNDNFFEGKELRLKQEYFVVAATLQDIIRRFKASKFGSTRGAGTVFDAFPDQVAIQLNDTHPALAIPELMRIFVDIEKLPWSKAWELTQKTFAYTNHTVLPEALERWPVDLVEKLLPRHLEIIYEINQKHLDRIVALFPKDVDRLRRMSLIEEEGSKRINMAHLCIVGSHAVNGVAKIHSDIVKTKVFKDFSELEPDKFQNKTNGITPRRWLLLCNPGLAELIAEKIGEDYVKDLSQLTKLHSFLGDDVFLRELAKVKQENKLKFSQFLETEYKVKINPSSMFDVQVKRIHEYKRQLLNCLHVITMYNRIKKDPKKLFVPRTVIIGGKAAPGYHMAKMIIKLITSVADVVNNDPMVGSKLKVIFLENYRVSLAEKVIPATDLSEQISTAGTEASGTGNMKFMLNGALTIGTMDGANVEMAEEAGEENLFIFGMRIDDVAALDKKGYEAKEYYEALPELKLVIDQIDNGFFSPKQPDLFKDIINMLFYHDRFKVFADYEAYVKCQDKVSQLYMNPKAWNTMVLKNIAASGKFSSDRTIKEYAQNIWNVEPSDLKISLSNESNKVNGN

Test [3] addresses T3, synaptotagmin 12, transcript variant X4 (human, UniProt Q8IV01 1-421).
T3 construct: HuProt array protein, full-length recombinant from yeast; also called SYT12
T3 sequence: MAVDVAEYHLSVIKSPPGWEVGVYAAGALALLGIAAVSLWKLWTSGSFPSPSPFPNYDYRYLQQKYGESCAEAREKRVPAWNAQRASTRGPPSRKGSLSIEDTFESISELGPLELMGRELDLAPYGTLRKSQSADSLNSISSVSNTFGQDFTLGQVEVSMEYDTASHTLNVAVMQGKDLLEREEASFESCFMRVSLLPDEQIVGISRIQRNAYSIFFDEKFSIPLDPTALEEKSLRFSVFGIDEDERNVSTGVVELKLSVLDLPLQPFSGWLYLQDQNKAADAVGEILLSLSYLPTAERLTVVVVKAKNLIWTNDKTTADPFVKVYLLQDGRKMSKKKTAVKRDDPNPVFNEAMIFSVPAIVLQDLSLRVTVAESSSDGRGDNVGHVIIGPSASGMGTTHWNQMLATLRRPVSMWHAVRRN

Test [4] has as its target T4, butyrophilin subfamily 1 member A1 (human, UniProt Q13410 27-526).
T4 construct: on protein array; also called BTN1A1
T4 sequence: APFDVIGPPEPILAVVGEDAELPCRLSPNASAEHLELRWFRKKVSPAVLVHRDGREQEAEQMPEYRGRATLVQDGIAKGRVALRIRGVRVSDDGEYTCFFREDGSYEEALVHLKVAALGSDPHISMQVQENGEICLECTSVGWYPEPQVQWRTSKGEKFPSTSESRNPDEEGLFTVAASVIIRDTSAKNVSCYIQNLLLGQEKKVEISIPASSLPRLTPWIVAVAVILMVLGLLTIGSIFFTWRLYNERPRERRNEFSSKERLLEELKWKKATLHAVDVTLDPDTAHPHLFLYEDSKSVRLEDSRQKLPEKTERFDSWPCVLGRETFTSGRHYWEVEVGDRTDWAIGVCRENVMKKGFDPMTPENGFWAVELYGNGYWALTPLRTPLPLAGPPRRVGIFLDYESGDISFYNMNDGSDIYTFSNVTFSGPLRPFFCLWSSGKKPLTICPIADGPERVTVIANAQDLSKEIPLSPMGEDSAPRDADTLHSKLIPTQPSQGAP
The experiment in a line: protein array.

Test [5] has as its target T5, cancer/testis antigen 1A (human, UniProt P78358 1-180).
T5 construct: HuProt array protein, full-length recombinant from yeast; also called CTAG1A

Test [6] concerns the target T6, glucuronidase, beta pseudogene (human).
T6 construct: HuProt array protein; labelled _frag; pseudogene product; also called BC025996.2_frag
T6 chain: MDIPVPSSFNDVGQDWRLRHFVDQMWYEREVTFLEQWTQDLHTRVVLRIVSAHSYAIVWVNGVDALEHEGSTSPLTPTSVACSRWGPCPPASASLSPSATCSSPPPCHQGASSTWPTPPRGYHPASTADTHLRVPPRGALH

In test [7] the target is T7, microfibril associated protein 3, transcript variant 3 (human, UniProt P55082 19-362).
T7 construct: HuProt array protein, full-length recombinant from yeast; also called MFAP3

Test [8] has as its target T8, olfactory receptor family 6 subfamily Q member 1 (gene/pseudogene) (human, UniProt Q8NGQ2 1-317).
T8 construct: HuProt array protein, full-length recombinant from yeast; also called OR6Q1
T8 sequence: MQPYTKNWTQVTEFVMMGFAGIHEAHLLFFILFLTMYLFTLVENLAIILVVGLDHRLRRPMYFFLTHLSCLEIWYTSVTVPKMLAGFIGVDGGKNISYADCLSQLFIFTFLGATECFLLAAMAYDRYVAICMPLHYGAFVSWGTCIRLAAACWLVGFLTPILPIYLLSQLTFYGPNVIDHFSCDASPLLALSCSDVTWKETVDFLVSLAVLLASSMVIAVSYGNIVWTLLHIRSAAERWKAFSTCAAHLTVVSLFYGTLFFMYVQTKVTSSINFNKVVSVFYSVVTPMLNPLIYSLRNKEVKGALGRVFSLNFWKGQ

In test [9] the target is T9, 5-hydroxytryptamine receptor 1E (human, UniProt P28566 1-365).
T9 construct: HuProt array protein, full-length recombinant from yeast; also called HTR1E
T9 sequence (P28566 whole entry): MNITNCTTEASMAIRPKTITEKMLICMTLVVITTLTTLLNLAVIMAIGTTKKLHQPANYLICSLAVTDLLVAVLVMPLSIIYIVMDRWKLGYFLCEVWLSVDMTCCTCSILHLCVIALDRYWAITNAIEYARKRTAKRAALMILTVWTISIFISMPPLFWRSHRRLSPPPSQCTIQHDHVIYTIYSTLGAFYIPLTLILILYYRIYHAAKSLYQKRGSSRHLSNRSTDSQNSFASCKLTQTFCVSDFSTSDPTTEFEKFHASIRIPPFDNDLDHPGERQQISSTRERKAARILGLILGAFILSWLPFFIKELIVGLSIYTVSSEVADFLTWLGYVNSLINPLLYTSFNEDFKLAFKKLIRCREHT

T5 sequence (P78358 whole entry): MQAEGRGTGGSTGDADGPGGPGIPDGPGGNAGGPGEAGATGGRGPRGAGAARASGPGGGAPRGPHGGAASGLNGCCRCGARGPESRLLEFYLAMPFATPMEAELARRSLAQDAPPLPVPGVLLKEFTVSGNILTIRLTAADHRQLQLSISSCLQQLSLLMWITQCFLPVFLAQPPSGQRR
T7 sequence (P55082 19-362 limits assumed, change not shown): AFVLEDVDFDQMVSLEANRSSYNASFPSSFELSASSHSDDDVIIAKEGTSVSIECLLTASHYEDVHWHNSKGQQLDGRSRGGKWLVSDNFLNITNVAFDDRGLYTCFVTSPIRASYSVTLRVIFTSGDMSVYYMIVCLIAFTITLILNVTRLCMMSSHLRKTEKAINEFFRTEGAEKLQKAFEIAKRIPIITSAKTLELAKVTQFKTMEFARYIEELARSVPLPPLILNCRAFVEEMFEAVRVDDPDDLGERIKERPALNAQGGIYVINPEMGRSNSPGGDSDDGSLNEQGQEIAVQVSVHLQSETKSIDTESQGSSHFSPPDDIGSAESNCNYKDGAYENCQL

B1: TBLA1007 (antibody, V domains shown)
VH: QVQLVQSGAEVKKPGASVKVSCKASGYTFTNYGFSWVRQAPGQGLEWMGRITTYNRDTIYAQKFQGRVTMTTDTSTSTAYMELRSLRSDDTAVYFCARVVPGDSVYGAFDIWGQGTMVTVSS
VL: DIQMTQSPSSLSASVGDRVTITCRASQSISSYLNWYQQKPGRAPRLLIYAASRLQIGVPSRFSGSGSGTDFTLTISSLQPEDFATYYCQQSYRMPCSFGQGTKLEI
notes: detected with anti-human IgG Fc
Consider B1, for which the binding result in test [1], in test [2] and in test [3] was “binds” throughout.

B2: TBRE1013 (antibody, V domains shown)
VH: EVQLVESGGGLVKPGGSLRLSCAGSGFSFSSYSMNWVRQAPGKGLEWVSSISSKSSSKNYIDSVKNRFIISRDNAKNSLYLQMNSLRAEDTAVYYCARDLELIIAAGAPLDHWGQGTLVTVSS
VL: DIQMTQSPSSLSASVGDRVTITCRASQSIKNYVNWYQQKPGEAPNLLIFAASNLQSGVPSRFTGSGSGTDFSLTISSLQPEDFAAYYCQQTYSHPRTFGQGTRVEIKR
notes: VH/VL only
With B2, the binding result in [4] is listed as “binds”.

B3: TBLA1012 (antibody, V domains shown)
VH: LLQLVESGGGVVQPGRSLRLSCAASGFTFTRHGFHWVRQAPGKGLEWVAVISSDGRKIHYTDSVKGRFVISRDDSDNTVYLHMNSLRLGDTALYYCARDSGGTPGPYWGQGTLVTVSS
VL: DVVMTQSPLSLPVTLGQPASISCRSSQSLVHSDGNTYLNWFQQRPGQSPRRLIYMVSNRDSGVPDRFSGSGSGTDFTLKISRVEAEDVGVYYCLQGTHWPPTIGQGTKVEIE
notes: as for B1
Consider B3, for which the binding result in test [5] is listed as “binds”.

B4: TBRE1006 (antibody, V domains shown)
VH: QVQLVQSGAEVKKPGASVKVSCKASGYIFTSYAIHWVRQAPGQRLEWMGWINAGNGNTKYSQKFQGRVTITRDTSANTAYMELSSLRSEDTAIYYCARDIAVAITNYFGSWGQGTLVTVSS
VL: EIVLTQSPATLSLSPGERATLSCRASQSVGSYLAWYQQKPGQAPRLLIYDASNRATGIPARFSGSGSGTDFTLTISSLEPEDFAVYYCQQGSNWLALTFGGGTKVEIKR
notes: as for B1
Regarding B4, the binding result in test [6] is “binds”.

B5: TBRE1002 (antibody, V domains shown)
VH: QVQLVESGGGVVQPGGSLRLSCGASGFAFSSNGMHWVRQAPGKGLEWVAFIHYDGRNKHYTDSVKGRFAISVDDSKTTLYLQMSSLKTEDTAVYYCVKDSRVTGQSSGYIFDSWGQGTLVTVSS
VL: ETVMTQSPATLSVSPGDRATLSCRASQNVNFNLAWYQQKPGQAPRLLIYDASTRATGIPARFSGSASGTEFTLTINSLQSEDFAVYYCQQYNNWWTFGQGTKLEIKR
notes: as for B1
Regarding B5, the binding result in [7] was “binds”.

B6: TBLA1010 (antibody, V domains shown)
VH: EVQLVESGGGLVQPGRSLRLSCAASGFPFGDYAMHWVRQAPGKGLEWVSGIGWDSGGIGYADSVKGRFTISRDIAKNSLYLEINSLRPDDTALYYCAKAAATLPYFRFAMDVWGQGTPVTVSS
VL: EIVLTQSPGTLSLSPGERATLSCRASQSVSSSYLAWYQQKPGQAPRLLIFGASTRASGIPDRFSGRGSGTEFTLTISRLEPEDFAVYYCQQYDSSPFTFGPGTKVEIKR
notes: as for B1
With B6, the binding result in test [8] is recorded as “binds”.

B7: TBLA1013 (antibody, V domains shown)
VH: EVQLLESGGGLVQPGGSLTLSCVGSRFTFSSYAMNWVRQSPGRGLEWVASISATTGSTYYTDSVEGRFTISRDNSRDTLYLQMNSLRADDTALYYCVRSFVGAVPAYPNFDFWGPGTLVTVSS
VL: PSGLTQPPSASGTPGQRVTMSCSGSSSNIGRNYVYWYQQLPGAAPKLLIYRDNQRPSGVPDRFSGSKSGTSASLAISGLRSEDEADYYCAAWDDNVSGPGFGAGTRLTVLG
notes: as for B1
Take B7: in [9], the binding result is recorded as “binds”.

These data come from US20220204643A1 (published 2022).
